Columns and labels:
LSmAD domain of Ataxin-2 = LSmAD domain of Ataxin-2 (UniProt Q99700 353-475); assay: EMSA; protein/RNA molar ratio up to 6; 1 mM MgCl2; EMSA: 10 mM Tris pH 8.0, 25 mM KCl, 10 mM NaCl, 1 mM MgCl2, 10% glycerol, 0.5 mM DTT, 20 min, 25 C; SEC and SHAPE buffers not in material; details: protein: recombinant, tags: His tag, single strand with flanking hairpins
LSm domain of Ataxin-2 [1] = molecular target: T1, LSm domain of Ataxin-2 (UniProt Q99700 242-344); assay: size-exclusion chromatography; EMSA: 10 mM Tris pH 8.0, 25 mM KCl, 10 mM NaCl, 1 mM MgCl2, 10% glycerol, 0.5 mM DTT, 20 min, 25 C; SEC and SHAPE buffers not in material; details: protein: recombinant, tags: His tag (pET-22b(+), NdeI/XhoI), single strand with flanking hairpins
T1 sequence (Q99700 242-344): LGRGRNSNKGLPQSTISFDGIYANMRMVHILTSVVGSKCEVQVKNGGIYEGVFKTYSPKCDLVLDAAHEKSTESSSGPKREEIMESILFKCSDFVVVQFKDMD

[2] = molecular target: T2, LSm-LSmAD M2 mutant of Ataxin-2 (UniProt Q99700 242-475, S315Q;S317T); assay: EMSA; fully shifted at protein/RNA molar ratio 20; moderate affinity; 1 mM MgCl2; EMSA: 10 mM Tris pH 8.0, 25 mM KCl, 10 mM NaCl, 1 mM MgCl2, 10% glycerol, 0.5 mM DTT, 20 min, 25 C; SEC and SHAPE buffers not in material; details: protein: recombinant; single strand with flanking hairpins
T2 sequence (Q99700 242-475 S315Q/S317T): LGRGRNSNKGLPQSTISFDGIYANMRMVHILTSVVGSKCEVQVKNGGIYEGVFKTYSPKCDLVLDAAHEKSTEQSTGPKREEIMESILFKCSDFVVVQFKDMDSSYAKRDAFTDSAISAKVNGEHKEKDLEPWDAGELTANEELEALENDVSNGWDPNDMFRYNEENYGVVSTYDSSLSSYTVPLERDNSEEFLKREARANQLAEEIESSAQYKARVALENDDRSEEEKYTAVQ

LSm domain of Ataxin-2 [3] = molecular target: T1, LSm domain of Ataxin-2; assay: SHAPE footprinting; AU-, GU-, CU-rich protected, less than with M2; CA-rich unchanged; EMSA: 10 mM Tris pH 8.0, 25 mM KCl, 10 mM NaCl, 1 mM MgCl2, 10% glycerol, 0.5 mM DTT, 20 min, 25 C; SEC and SHAPE buffers not in material; details: protein: recombinant; tags: His tag (pET-22b(+), NdeI/XhoI)
[4] = molecular target: T2, LSm-LSmAD M2 mutant of Ataxin-2; assay: SHAPE footprinting; AU-, GU-, CU-rich protected, more than with LSm; CA-rich unchanged; EMSA: 10 mM Tris pH 8.0, 25 mM KCl, 10 mM NaCl, 1 mM MgCl2, 10% glycerol, 0.5 mM DTT, 20 min, 25 C; SEC and SHAPE buffers not in material; details: protein: recombinant
LSm domain of Ataxin-2 [5] = molecular target: T1, LSm domain of Ataxin-2; assay: SHAPE footprinting; GU-, AU-, CU-rich protected (CU most); CA-rich unchanged; EMSA: 10 mM Tris pH 8.0, 25 mM KCl, 10 mM NaCl, 1 mM MgCl2, 10% glycerol, 0.5 mM DTT, 20 min, 25 C; SEC and SHAPE buffers not in material; details: protein: recombinant; tags: His tag (pET-22b(+), NdeI/XhoI)
[6] = molecular target: T2, LSm-LSmAD M2 mutant of Ataxin-2; assay: as above; details: protein: recombinant
LSm domain of Ataxin-2 [7] = molecular target: T1, LSm domain of Ataxin-2; assay: SHAPE footprinting; AU- and GU-rich protected (AU more than with M2); CA-rich unchanged; EMSA: 10 mM Tris pH 8.0, 25 mM KCl, 10 mM NaCl, 1 mM MgCl2, 10% glycerol, 0.5 mM DTT, 20 min, 25 C; SEC and SHAPE buffers not in material; details: protein: recombinant; tags: His tag (pET-22b(+), NdeI/XhoI)
[8] = molecular target: T2, LSm-LSmAD M2 mutant of Ataxin-2; assay: SHAPE footprinting; AU- and GU-rich protected (GU more than with LSm); CA-rich unchanged; EMSA: 10 mM Tris pH 8.0, 25 mM KCl, 10 mM NaCl, 1 mM MgCl2, 10% glycerol, 0.5 mM DTT, 20 min, 25 C; SEC and SHAPE buffers not in material; details: protein: recombinant

Sequence of LSmAD domain of Ataxin-2 (Q99700 353-475): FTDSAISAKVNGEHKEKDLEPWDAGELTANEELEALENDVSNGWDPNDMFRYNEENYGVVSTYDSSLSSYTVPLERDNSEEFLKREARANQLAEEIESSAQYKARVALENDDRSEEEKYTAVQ

B1: AC-rich RNA (structured_RNA)
RNA: GGCCUUCGGGCCAAACCCCCACCCCCACCCCCACCCCCACCCCCUCGAUCCGGUUCGCCGGAUCCAAAUCGGGCUUCGGUCCGGUUC
B1: no binding (LSmAD domain of Ataxin-2; two conformers in gel); no binding (LSm domain of Ataxin-2 [1]; two conformers in gel).

B2: AU-rich RNA (structured_RNA)
RNA: GGCCUUCGGGCCAAAUUUUUAUUUUUAUUUUUAUUUUUAUUUUUUCGAUCCGGUUCGCCGGAUCCAAAUCGGGCUUCGGUCCGGUUC
B2: binds [2]; no binding (LSmAD domain of Ataxin-2); binds (LSm domain of Ataxin-2 [1]).

B3: RE2 (structured_RNA)
RNA: GGCCUUCGGGCCAAAUUUAUUUAUUUAUUUAGCGAGAAGUUGUUUGUUUGUGUUUGACGUCUGUGUGGACGUCACACACAGGAUGCAUCGGACCUUUUCCCCUUUUCCCUUUUCGAUCCGGUUCGCCGGAUCCAAAUCGGGCUUCGGUCCGGUUC
B3: binds (LSm domain of Ataxin-2 [3]); binds [4].

B4: RE5 (structured_RNA)
RNA: GGCCUUCGGGCCAAACCGUACACACACACAUGGCUAGACGGUAUGUUUGUUUGUUGUUUGUUUGUUGUUUGUUUGUGUUUGACGUAGGAAUUUAAUUUAAUUUAAUUUAAUUUAAUUUAAUUUACAGGCUACGUAGGCCAGGACCCCUCUUUUCUCCCCAGGACCCCUCUUUUCUCCCCAUUCACCCUCCCUUCUCCAGAGCGAUUCGAUCCGGUUCGCCGGAUCCAAAUCGGGCUUCGGUCCGGUUC
B4: binds (LSm domain of Ataxin-2 [5]); binds [6].

B5: RE1 (structured_RNA)
RNA: GGCCUUCGGGCCAAAUUUAUUUAUUUAUUUAUUUAGCUGACGAUCCACACACACAGGAAUCGACUCUGUUUGUUUGUGUUUGUUUGUACUGAAUUGGCACUUUUCCCCUUUUCCCUUUCUGGACUGGCAUCGAUCCGGUUCGCCGGAUCCAAAUCGGGCUUCGGUCCGGUUC
B5: binds (LSm domain of Ataxin-2 [7]); binds [8].

Source: article PMC11898529, “The LSmAD Domain of Ataxin-2 Modulates the Structure and RNA Binding of Its Preceding LSm Domain”
